Measured values as given in patent US5756343, “Cell stress transcriptional factors” (The United States of America as represented by the …, dated 1992).

What was measured:
[1] = molecular target: human HSF (HuHSF) (Homo sapiens) (UniProt Q00613); details: in vitro transcription, Drosophila embryo extract
[2] = molecular target: T1, Drosophila HSF full length (pHSF WT) (Drosophila melanogaster) (UniProt P22813); details: in vitro transcription, Drosophila embryo extract; scale: fold transcription vs template lacking HSEs
T1 sequence: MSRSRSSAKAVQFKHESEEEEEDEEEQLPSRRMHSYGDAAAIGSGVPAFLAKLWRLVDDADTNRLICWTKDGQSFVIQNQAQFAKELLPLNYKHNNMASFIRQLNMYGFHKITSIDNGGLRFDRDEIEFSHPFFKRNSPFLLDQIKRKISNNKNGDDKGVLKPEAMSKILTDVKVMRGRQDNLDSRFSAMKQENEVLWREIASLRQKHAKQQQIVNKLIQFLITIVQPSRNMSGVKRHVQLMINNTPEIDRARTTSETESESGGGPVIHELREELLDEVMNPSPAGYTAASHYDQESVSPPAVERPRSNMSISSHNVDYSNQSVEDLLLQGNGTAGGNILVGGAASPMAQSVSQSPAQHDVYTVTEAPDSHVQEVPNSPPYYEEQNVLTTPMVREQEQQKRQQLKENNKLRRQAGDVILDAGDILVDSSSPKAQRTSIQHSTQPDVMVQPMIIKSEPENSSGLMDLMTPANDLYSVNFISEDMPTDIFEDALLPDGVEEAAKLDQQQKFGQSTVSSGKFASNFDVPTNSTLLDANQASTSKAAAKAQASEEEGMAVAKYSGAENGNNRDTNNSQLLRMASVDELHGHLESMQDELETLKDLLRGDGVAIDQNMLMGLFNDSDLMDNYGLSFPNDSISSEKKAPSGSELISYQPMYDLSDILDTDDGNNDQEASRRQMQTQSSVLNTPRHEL

[3] = molecular target: T2, Drosophila HSF expressed in Xenopus oocytes (Drosophila melanogaster) (UniProt P22813); assay: EMSA; details: oocytes 36 C 10 min vs 18 C
T2 sequence: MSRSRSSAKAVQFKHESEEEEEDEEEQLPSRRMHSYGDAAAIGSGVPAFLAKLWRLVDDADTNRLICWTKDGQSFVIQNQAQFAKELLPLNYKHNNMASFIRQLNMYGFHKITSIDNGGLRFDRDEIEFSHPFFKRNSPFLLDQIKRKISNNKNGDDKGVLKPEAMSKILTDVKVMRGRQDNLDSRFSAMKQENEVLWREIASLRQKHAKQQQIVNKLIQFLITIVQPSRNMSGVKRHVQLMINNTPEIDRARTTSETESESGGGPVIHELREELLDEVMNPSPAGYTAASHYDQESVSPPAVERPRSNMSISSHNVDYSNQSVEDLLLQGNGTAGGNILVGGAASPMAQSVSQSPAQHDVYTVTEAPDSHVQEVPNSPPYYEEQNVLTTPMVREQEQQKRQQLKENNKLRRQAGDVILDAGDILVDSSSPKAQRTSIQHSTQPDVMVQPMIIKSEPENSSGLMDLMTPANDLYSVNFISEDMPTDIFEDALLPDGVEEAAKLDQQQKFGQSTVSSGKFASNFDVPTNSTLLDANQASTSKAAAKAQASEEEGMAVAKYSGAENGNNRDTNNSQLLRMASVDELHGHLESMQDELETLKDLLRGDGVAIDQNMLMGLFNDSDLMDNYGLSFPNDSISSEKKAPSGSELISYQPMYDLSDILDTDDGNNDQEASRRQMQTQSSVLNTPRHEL

[4] = molecular target: the molecule itself; assay: self-association: pore exclusion limit electrophoresis on a nondenaturing gradient gel, purified HSF from E. coli
Method: The gel was stained with Coomassie Blue. […] (B) Pore exclusion limit analysis of the HSF:^32P-HSE complex. 3 µl of Drosophila SL-2 cell cytosol (lanes 1,2) and 0.5 µl of an extract *E. coli* expressing HSF (lanes 3,4) were heat shocked (+) in vitro at 34° C. or incubated at 0° C. (−) for 10 min. The samples were incubated for 10 min with ^32P-labeled HSE tinder standard gel shift conditions, and electrophoresed on a nondenaturing, 3–12% polyacrylamide gradient gel until the limit of migration. The gel was stained with Coomassie Blue, dried and subjected to autoradiography. The positions of marker proteins are indicated. (C) Glutaraldehyde cross-linking of cloned HSF. Purified HSF (2 µg/10 µl) was treated for 5 min at room temperature with glutaraldehyde as indicated. After quenching, about 1 µg of cross-linked HSF was separated on a 4–6% SDS polyacrylamide gel, and silver stained. The minor polypeptides below the 105 kD HSF protein probably represent degradation products. […] Cross-linked products were analyzed by SDS gel electrophoresis as above.
EXAMPLE 5 Recombinant Drosophila HSF Expressed in *E. coli*. Associates as a Hexamer in Solution The apparent molecular mass of recombinant HSF, purified from *E. coli* extracts, was determined to be about 105 KD by SDS polyacrylamide gel electrophoresis (see FIG. 6).

Drosophila HSF 1-163 = molecular target: T3, Drosophila HSF 1-163 (Drosophila melanogaster, UniProt P22813 SEQ:1-163); assay: footprint; estimated from protein concentration for about 50% binding; details: tags: E. coli BL21(DE3) extract; label: 32P 5' end
T3 chain: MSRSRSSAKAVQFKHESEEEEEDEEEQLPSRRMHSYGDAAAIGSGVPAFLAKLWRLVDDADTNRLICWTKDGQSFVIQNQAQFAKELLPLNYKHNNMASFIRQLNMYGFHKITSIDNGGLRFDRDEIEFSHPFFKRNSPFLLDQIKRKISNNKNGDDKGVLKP
Method: (§1) All numbers refer to amino acid positions. The open bars represent HSF coding sequences; the shaded regions A–D represent sequences conserved between Drosophila and yeast HSF. The solid boxes indicate the φ10 promoter (T_7), the Shine-Delgarno (SD) sequence, and the transcription terminator (T) of the expression vector. (B) SDS polyacrylamide gel analysis of wild-type and mutant HSF polypeptides. Mutants were expressed in BL21 (DE3) in the presence of ^35S-methionine (20 µCi/ml). 0.1 ml of culture was precipitated and the pellet was denatured at 100° C. in 10 µl of Laemmli sample buffer. Samples were electrophoresed on a 15% polyacrylamide gel and visualized by fluorography. The arrows pointing left indicate HSF polypeptides. A 26 kD protein (arrowhead) was also labeled in all samples, including *E. coli* transformed with the expression vector alone. (C) DNase I protection analysis of HSF mutants. A labeled fragment from the hsp70 promoter was incubated with the indicated amounts of wild-type or mutant HSF proteins. Footprinting reactions were performed essentially as described in FIG. 3C. Figure 7B: Figure 7C: […]

Drosophila HSF 1-241 = molecular target: T4, Drosophila HSF 1-241 (Drosophila melanogaster, UniProt P22813 SEQ:1-241); assay: footprint; details: tags: E. coli BL21(DE3) extract; label: 32P 5' end
T4 chain: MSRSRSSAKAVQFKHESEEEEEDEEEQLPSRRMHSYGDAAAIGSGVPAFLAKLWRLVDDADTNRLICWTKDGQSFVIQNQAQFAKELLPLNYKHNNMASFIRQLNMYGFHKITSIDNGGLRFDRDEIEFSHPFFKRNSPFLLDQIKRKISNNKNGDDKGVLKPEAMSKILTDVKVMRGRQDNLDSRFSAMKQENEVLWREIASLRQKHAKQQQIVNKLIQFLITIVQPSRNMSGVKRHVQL
From the text: as §1, with “Figure 7A: FIGS. 7A, 7B, and 7C represent the deletion analysis of HSF. (A) Schematic drawing of full-length HSF open reading frame (pHSF WT) and three deletion mutants PHSF 1-367, 1-241, and 1-163. All” for “All”

Drosophila HSF 1-367 = molecular target: T5, Drosophila HSF 1-367 (Drosophila melanogaster, UniProt P22813 SEQ:1-367); assay: footprint; details: tags: E. coli BL21(DE3) extract; label: 32P 5' end
T5 chain: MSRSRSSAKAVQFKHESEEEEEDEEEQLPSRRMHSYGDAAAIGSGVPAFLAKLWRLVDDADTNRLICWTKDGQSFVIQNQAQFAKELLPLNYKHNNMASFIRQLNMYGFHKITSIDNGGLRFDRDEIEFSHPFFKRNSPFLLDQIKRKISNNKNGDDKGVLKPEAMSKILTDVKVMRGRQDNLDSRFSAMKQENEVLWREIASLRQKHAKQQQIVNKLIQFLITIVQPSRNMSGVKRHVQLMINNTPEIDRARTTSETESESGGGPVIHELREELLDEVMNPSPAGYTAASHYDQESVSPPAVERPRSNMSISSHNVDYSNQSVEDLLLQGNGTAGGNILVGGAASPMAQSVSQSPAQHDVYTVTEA
From the text: as §1, with “Figure 7A: FIGS. 7A, 7B, and 7C represent the deletion analysis of HSF. (A) Schematic drawing of full-length HSF open reading frame (pHSF WT) and three deletion mutants PHSF 1-367, 1-241, and 1-163. All” for “All”

human HSF (HuHSF) (Homo sapiens), sequence (Q00613 whole entry): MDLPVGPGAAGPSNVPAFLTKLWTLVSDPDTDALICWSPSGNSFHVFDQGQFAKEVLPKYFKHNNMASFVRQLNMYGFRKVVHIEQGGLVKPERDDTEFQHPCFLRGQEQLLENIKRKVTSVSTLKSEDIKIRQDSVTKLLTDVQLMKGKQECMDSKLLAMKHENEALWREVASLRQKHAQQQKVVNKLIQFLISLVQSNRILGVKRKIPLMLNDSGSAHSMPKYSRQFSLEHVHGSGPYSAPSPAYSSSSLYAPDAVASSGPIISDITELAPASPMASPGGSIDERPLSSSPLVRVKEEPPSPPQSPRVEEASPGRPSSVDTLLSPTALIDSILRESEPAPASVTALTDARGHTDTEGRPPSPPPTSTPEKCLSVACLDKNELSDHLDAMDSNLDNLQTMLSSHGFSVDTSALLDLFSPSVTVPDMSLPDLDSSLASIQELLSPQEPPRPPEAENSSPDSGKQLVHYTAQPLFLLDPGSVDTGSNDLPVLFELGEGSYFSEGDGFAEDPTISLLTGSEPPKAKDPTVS

phsp70(-50)HSE2 template
activity (fold transcription stimulation) [1]: 6
activity [2]: 7

synthetic HSE with three -GAA- repeats in alternating orientation
binding signal (fold increase on heat shock) [3]: 5

B1: recombinant Drosophila heat shock factor (HSF), full-length, expressed in E. coli (pHSFWT) or translated in vitro in rabbit reticulocyte lysate (other)
chain: MSRSRSSAKAVQFKHESEEEEEDEEEQLPSRRMHSYGDAAAIGSGVPAFLAKLWRLVDDADTNRLICWTKDGQSFVIQNQAQFAKELLPLNYKHNNMASFIRQLNMYGFHKITSIDNGGLRFDRDEIEFSHPFFKRNSPFLLDQIKRKISNNKNGDDKGVLKPEAMSKILTDVKVMRGRQDNLDSRFSAMKQENEVLWREIASLRQKHAKQQQIVNKLIQFLITIVQPSRNMSGVKRHVQLMINNTPEIDRARTTSETESESGGGPVIHELREELLDEVMNPSPAGYTAASHYDQESVSPPAVERPRSNMSISSHNVDYSNQSVEDLLLQGNGTAGGNILVGGAASPMAQSVSQSPAQHDVYTVTEAPDSHVQEVPNSPPYYEEQNVLTTPMVREQEQQKRQQLKENNKLRRQAGDVILDAGDILVDSSSPKAQRTSIQHSTQPDVMVQPMIIKSEPENSSGLMDLMTPANDLYSVNFISEDMPTDIFEDALLPDGVEEAAKLDQQQKFGQSTVSSGKFASNFDVPTNSTLLDANQASTSKAAAKAQASEEEGMAVAKYSGAENGNNRDTNNSQLLRMASVDELHGHLESMQDELETLKDLLRGDGVAIDQNMLMGLFNDSDLMDNYGLSFPNDSISSEKKAPSGSELISYQPMYDLSDILDTDDGNNDQEASRRQMQTQSSVLNTPRHEL
binding result [4]: binds

B2: hsp70 promoter (-100 to +10 printed) (dsDNA)
DNA 1: AAACGGCACACTGTTCTCGTTGCTTCGAGAGAGCGCGCCTCGAATGTTCGCGAAAAGAGCGCCGGAGTATAAATAGAGGCGCTTCGTCGACGGAGCGTCAATTCAATTCA
DNA 2: TGAATTGAATTGACGCTCCGTCGACGAAGCGCCTCTATTTATACTCCGGCGCTCTTTTCGCGAACATTCGAGGCGCGCTCTCTCGAAGCAACGAGAACAGTGTGCCGTTT
binding signal (Drosophila HSF 1-163): 50 fold lower affinity vs full length
binding signal (Drosophila HSF 1-241): ≤ 2 fold difference vs full length
binding signal (Drosophila HSF 1-367): ≤ 2 fold difference vs full length
